From PMC3473065
Numbering of substitutions follows the chain as printed.

B1: wild-type Ncd dimeric motor protein (MGSM-H293-K700) (domain or fragment)
chain: MGSMHAALSTEVVHLRQRTEELLRCNEQQAAELETCKEQLFQSNMERKELHNTVMDLRGNIRVFCRIRPPLESEENRMCCTWTYHDESTVELQSIDAQAKSKMGQQIFSFDQVFHPLSSQSDIFEMVSPLIQSALDGYNICIFAYGQTGSGKTYTMDGVPESVGVIPRTVDLLFDSIRGYRNLGWEYEIKATFLEIYNEVLYDLLSNEQKDMEIRMAKNNKNDIYVSNITEETVLDPNHLRHLMHTAKMNRATASTAGNERSSRSHAVTKLELIGRHAEKQEISVGSINLVDLAGSESPKTSTRMTETKNINRSLSELTNVILALLQKQDHIPYRNSKLTHLLMPSLGGNSKTLMFINVSPFQDCFQESVKSLRFAASVNSCKMTKAKRNRYLNNSVANSSTQSNNSGSFDK
B2: NcdY485E dimeric motor protein (MGSM-H293-K700) (domain or fragment)
chain: B1 chain with Y197E
B3: NcdY485N dimeric motor protein (MGSM-H293-K700) (domain or fragment)
chain: B1 chain with Y197N
B4: NcdY485K dimeric motor protein (MGSM-H293-K700) (domain or fragment)
chain: B1 chain with Y197K

These binders were tested against microtubules (assay: co-sedimentation; microtubule pelleting assay: 0.7 µM motor with 2 µM microtubules and 0.1 mM Mg·ADP in HEM100 (10 mM HEPES pH 7.2, 1 mM EGTA, 1 mM MgCl2, 100 mM NaCl); centrifugation, SDS-PAGE; corrected for motor that pelleted without microtubules).

MT binding with ADP (fraction bound) (fraction bound)	Binder
0.2	B1
0.29	B2
0.37	B3
0.6	B4

What follows are binders tested against microtubules (assay: not given).

K (M,MT) of steady-state ATPase, 0.5 µM motor + 0-25 µM microtubules	Binder
17 µM	B1
1.6 µM	B4
